Test results: paper PMC7510528 (Cell, 2020)

Target: T1, RBD-Fc (RBD-SD1 part of SARS-CoV2-S1, amino acids 319-591, fused to the constant region of rabbit IgG1 heavy … (SARS-CoV-2 (reference sequence, …, UniProt P0DTC2)))
T1 construct: source: HEK293T, cell culture supernatant, immobilized onto plates via anti-rabbit IgG
Test: ELISA
Details: partners not purified

B1: HK CV07-202 (antibody, V domains shown)
VH: EVQLVESGGGLIQPGGSLRLSCAASGFTVSSNYMSWVRQAPGKGLEWISVIYSGGSTFYADSVKGRFTISRDNSKNTLYLQMNSLRAEDTAVYYCARDLYYYGMDVWGQGTTVTVSS
VL: DIQLTQSPSFLSASVGDRVTITCRASQGISSYLAWYQQKPGKAPKLLIYAASTLQSGVPSRFSGSGSGTEFTLTISSLQPEDFATYYCQQLNNYSVTFGGGTKVEIK
- binding result: binds
